Source: article PMC10600457

B1: Nirsevimab (antibody, V domains shown)
VH: QVQLVQSGAEVKKPGSSVMVSCQASGGLLEDYIINWVRQAPGQGPEWMGGIIPVLGTVHYGPKFQGRVTITADESTDTAYMELSSLRSEDTAMYYCATETALVVSETYLPHYFDNWGQGTLVTVSS
VL: DIQMTQSPSSLSAAVGDRVTITCQASQDIVNYLNWYQQKPGKAPKLLIYVASNLETGVPSRFSGSGSGTDFSLTISSLQPEDVATYYCQQYDNLPLTFGGGTKVEIK
B2: MEDI8897* (antibody, V domains shown)
VH: B1 VH
VL: B1 VL
B3: MEDI8897*-TM (antibody, V domains shown)
VH: B1 VH
VL: B1 VL
B4: Palivizumab (antibody, V domains shown)
VH: QVTLRESGPALVKPTQTLTLTCTFSGFSLSTSGMSVGWIRQPPGKALEWLADIWWDDKKDYNPSLKSRLTISKDTSKNQVVLKVTNMDPADTATYYCARSMITNWYFDVWGAGTTVTVSS
VL: DIQMTQSPSTLSASVGDRVTITCKCQLSVGYMHWYQQKPGKAPKLLIYDTSKLASGVPSRFSGSGSGTEFTLTISSLQPDDFATYYCFQGSGYPFTFGGGTKLEIK

molecular target: FcγRIIIA-158V; assay: SPR

Binder	Kd [nM]
B1	2110
B2	1150
B3	5150
B4	882

molecular target: FcγRI (UniProt P12314); assay: SPR
Sequence of UniProt P12314 (P12314 16-374): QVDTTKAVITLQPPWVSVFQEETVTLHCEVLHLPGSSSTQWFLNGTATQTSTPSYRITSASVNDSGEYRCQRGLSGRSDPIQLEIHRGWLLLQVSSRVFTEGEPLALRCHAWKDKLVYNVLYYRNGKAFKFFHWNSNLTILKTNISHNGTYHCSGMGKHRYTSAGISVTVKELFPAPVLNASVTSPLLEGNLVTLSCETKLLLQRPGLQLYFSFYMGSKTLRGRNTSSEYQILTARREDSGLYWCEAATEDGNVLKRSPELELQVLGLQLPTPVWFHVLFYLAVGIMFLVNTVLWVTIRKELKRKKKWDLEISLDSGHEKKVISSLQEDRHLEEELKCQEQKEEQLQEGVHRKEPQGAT

Binder	Kd [nM]
B1	10.3
B2	1.24
B3	240
B4	1.01

molecular target: FcγRIIB (UniProt P31994); assay: SPR
Sequence of UniProt P31994 (P31994 43-310): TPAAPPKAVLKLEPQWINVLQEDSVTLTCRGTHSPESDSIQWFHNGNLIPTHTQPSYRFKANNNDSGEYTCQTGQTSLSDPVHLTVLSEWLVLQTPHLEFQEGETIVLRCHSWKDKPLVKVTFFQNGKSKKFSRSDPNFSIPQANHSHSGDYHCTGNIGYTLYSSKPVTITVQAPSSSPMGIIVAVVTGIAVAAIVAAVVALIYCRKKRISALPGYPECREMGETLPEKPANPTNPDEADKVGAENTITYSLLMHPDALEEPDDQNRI

Binder	Kd [µM]
B2	13.5
B4	12.5

molecular target: FcγRIIA (UniProt P12318); assay: SPR

Binder	Kd [µM]
B1	9.3
B2	3.72
B3	34.4
B4	2.78
